In patent US20020015966A1, “Effector-specific protein assembly and uses thereof” (priority 2000, published 2002):

Tests used:
ER-α = experiment: mammalian two-hybrid assay of ER-α helix 1-LBD interaction; format: cell-based; settings: HepG2 cells, G5E1B-Luc reporter
Text: Shown are mammalian two-hybrid assays of Gal fusions containing helix 1 of ER-α with VP16 fusions of the ER LBD containing or lacking helix 1. HepG2 cells were cotransfected with G5E1B-Luc reporter, the appropriate combination of the expression vectors, and a ligand or vehicle. “E2” denotes estradiol; “4HT” denotes 4-hydroxy tamoxifen; and “ICI” denotes ICI-172,780.
HepG2 cells were maintained in Dulbecco's modified Eagle medium supplemented with 10% fetal calf serum. For transfection the cells were plated the day before into 24-well dishes at density 10^5 cells/well in DMEM supplemented with 10% charcoal-stripped serum. Transfections were performed by the calcium phosphate co-precipitation method. […] The amount of DNA was adjusted to 500 ng total per well with pBluescript vector.
The cells were washed with PBS the next morning and fresh media containing the appropriate ligands was added. The cells were harvested 24 hours later and assayed for luciferase (Molecular Probes) and β-Galactosidase activity (Tropix) on an MLX luminometer. All experiments were performed at least twice in duplicate.

TR 204-461 = target: T1, TR 204-461 (Homo sapiens, UniProt P10828); experiment: protease digestion assay (trypsin) of TR LBD; format: biochemical; settings: in the absence of ligand; 1 mM peptide, trypsin 7 minutes at room temperature
T1 construct: Flag (N); made in house; host or cells: in vitro translation
T1 sequence (P10828 204-461): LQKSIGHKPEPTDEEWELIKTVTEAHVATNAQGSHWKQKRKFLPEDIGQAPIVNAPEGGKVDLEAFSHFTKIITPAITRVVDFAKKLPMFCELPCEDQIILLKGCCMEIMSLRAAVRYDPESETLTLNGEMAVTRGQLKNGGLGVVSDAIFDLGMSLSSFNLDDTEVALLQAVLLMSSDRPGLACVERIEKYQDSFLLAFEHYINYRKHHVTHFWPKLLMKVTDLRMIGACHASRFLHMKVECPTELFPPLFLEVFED
Method: The mixture was digested with trypsin for 7 minutes at room temperature and analyzed by SDS-PAGE.
Subsequently, wild-type or mutated N-CoR peptides were added to final concentrations of 1 mM, and the reaction mixtures was further incubated for 30 minutes on ice. BSA was added to the reactions with no peptides to supplement for equal protein concentration in all the reaction mixtures. Finally, […] of trypsin was added to the indicated tubes, and the protein digestion was performed at room temperature for 7 minutes. The reactions were stopped with the addition of SDS-sample buffer and boiling. The samples were run on a 15% SDS-gel that was then dried and exposed to film for 1 hour.

[1] = target: T2, GST-TR hinge fusion / TR LBD (Homo sapiens, UniProt P10828); experiment: GST pulldown assay of GST-TR204-260 with in vitro translated TR236-461; format: binding; settings: peptide 10 and 100 μM
T2 construct: GST pulldown assay of GST-TR204-260 with in vitro translated TR236-461; made in house; host or cells: The GST fusion was made in E. coli BL21; The LBD fragment was translated in vitro
T2 sequence (P10828 236-461): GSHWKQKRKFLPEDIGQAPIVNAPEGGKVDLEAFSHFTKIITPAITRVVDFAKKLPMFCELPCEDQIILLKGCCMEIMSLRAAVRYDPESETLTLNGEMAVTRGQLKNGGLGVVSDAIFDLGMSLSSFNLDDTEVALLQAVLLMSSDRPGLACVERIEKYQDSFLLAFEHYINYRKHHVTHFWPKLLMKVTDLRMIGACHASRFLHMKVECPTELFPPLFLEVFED
T2 sequence (P10828 204-260 partner limits assumed): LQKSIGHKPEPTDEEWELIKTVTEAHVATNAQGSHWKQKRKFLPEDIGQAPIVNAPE
Text: FIGS. 5A and 5B illustrate that N-CoR enhances the hinge-LBD interaction in the absence of ligand. In FIG. 5A, HepG2 cells were cotransfected with Gal4-hinge and VP16-LBD fusions of TR (left panel), RAR (middle panel), or RXR (right panel) in the presence or absence of Gal-RIP13ΔN4 construct and treated with the corresponding ligands or vehicle alone. […] Wt and mutant peptides of N-CoR IDI (top and bottom panels, respectively) were included where indicated at concentrations of 10 (+) and 100 (++) μM.
The appropriate GST fusion constructs were induced with […] and coupled to glutathione beads (Sepharose, Pharmacia). Interactions were performed overnight at 4° C. in buffer containing 20 mM Hepes pH 7.6, 100 mM NaCl, 20% glycerol, 2 mg/ml BSA, 1 mM DTT, and various protease inhibitors. The beads were subsequently washed twice with the interaction buffer containing 0.05% Triton X-100 and once with 50 mM Tris-HCl pH 8. Ligands or peptides were included in the washes where appropriate. The bound proteins were eluted with 15 mM glutathione (Sigma) for 15 minutes at 37° C. and analyzed by SDS-PAGE and fluorography (Amplify, Amersham). The sequence of the N-CoR RID peptide was […].

| stabilization of TR LBD fragment against trypsin digestion (TR 204-461) | interaction between a GST-TR hinge fusion and the TR LBD ([1]; in the absence of ligand) | interaction between a GST-TR hinge fusion and the TR LBD ([1]; in the presence of ligand) | Substance | hinge-LBD interaction of ER-α (ER-α) | new protease resistant species with a lower molecular weight (TR 204-461) |
| --- | --- | --- | --- | --- | --- |
| – | – | – | 4-hydroxy tamoxifen | stronger effect | – |
| some apparent stabilization | strongly stimulated | did not affect | ASNLGEDIIKALMGSFDD [wild type NCoR RID I peptide] | – | presence of a new protease resistant species |
